The conditions of the series: Enterobacteria phage fd; pH 7; 25 °C; GdnHCl; CD; MOPS 50 mM; NaCl 100 mM; reversible: yes; whole UniProt chain shown.

B1: DNA-Binding protein G5P wild type, P69542 (protein)
chain: MIKVEIKPSQAQFTTRSGVSRQGKPYSLNEQLCYVDLGNEYPVLVKITLDEGQPAYAPGLYTVHLSSFKVGQFGSLMIDRLRLVPAK
On to B1, for which the denaturant m value stood at 3.6 kcal/mol/M, the “denaturant midpoint (higher = more stable)” value came out at 2.61 M and the unfolding free energy is 9 kcal/mol.

Source of the values: FireProtDB (doi:10.1073/pnas.88.5.1706).
